Experimental data taken from US20130288372A1 (Bristol-Myers Squibb, published 2013).
Changes are numbered by the printed parent chain. Blank lines part the entries; values can stand above or below the binder they belong to.

Assays:
Human IL-23 [1] = target: T1, Human IL-23 (human, UniProt Q9NPF7 20-189; P29460 23-328); experiment: cell-based or functional assay
T1 sequence (looked up) 1: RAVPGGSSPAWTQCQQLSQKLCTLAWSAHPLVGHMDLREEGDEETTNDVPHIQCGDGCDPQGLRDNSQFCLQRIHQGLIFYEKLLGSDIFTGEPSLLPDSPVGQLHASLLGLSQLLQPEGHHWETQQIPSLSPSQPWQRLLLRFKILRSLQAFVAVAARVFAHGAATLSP
T1 sequence (looked up) 2: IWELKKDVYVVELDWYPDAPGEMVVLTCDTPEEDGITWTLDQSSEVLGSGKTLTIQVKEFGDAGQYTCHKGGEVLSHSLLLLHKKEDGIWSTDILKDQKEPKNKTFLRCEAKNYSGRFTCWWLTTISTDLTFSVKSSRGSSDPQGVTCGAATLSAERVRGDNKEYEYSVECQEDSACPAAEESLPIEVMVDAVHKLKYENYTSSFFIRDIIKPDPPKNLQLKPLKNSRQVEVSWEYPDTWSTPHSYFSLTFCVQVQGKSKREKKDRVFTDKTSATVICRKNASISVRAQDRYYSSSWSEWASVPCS

Human IL-23 [2] = target: T1, Human IL-23; experiment: competitive ELISA: Adnectin pre-incubated with 1 nM IL-23, binding to coated IL-23R-Fc
Description: (§1) Adnectin variants were tested by ELISA for their ability to bind IL-23 in a manner that was competitive with the binding site of the native IL-23 receptor (IL-23R). Recombinant human IL-23R-Fc (R&D Systems, Minneapolis, Minn.) was coated overnight at 4° C. on a NUNC® Maxisorp plate (Thermo Fisher Scientific, Denmark) with 50 μL at 4 μg/mL in PBS. All washing was performed with PBST (PBS with 0.05% (w/v) Tween) using an automated plate washer (Biotek, Vt.). OptEIA buffer (BD Bioscience, CA) was used as block and assay diluent. Adnectin dilutions ranging from 200 nM to 28 pM were pre-incubated with 1 nM IL-23 for an hour before transferring to blocked IL-23R-Fc coated plates for 30 minutes. Bound IL-23 was detected via anti-IL-23 (GeneTex, CA) and anti-mouse-HRP (R&D Systems, MN) followed by TMB (3,3′,5,5′-tetramethylbenzidine) (BD Bioscience, CA) addition. Typical development time was 10 minutes. […] IC50s were generated from the average of four runs with an in-house curve fitting application.

Human IL-23 [3] = target: T1, Human IL-23; experiment: SPR (Biacore T100), Adnectin captured by anti-His mAb, IL-23 injected, 25 C
Description: The anti-His antibody, mAb050 (RnD Systems, MN) was diluted to 20 μg/mL in acetate, pH 5.0 and immobilized to ˜9000 RU on flow cells 1 and 2 of a CM5 chip surface (GE Healthcare, Piscataway, N.J.) according to the manufacturer's instructions. All surface plasmon experiments were conducted in HBS-EP (10 mM Hepes 150 mM NaCl 3 mM EDTA 0.05% Surfactant P20) at 25° C. IL-23 was injected over anti-His mAb captured Adnectins for 2 minutes followed by a 10 minute dissociation phase. Kinetic parameters were calculated using the T100. Biaevaluation.

Human IL-23 [4] = target: T1, Human IL-23; experiment: competitive ELISA, ratio of IC50 against parent 1454B08
Description: as §1

pSTAT3 IC50 (nM) (Human IL-23 [1]): 0.03 nM
B1: Anti-IL-23 Adnectin 1866C02 (designed binder)
chain: MGVSDVPRDLEVVAATPTSLLISWDHNYTWYRYYRITYGETGGNSPVQEFTVPRGVDTATISGLKPGVDYTITVYAVTSSYKYDIQYPPISINYRTEIDKPSQHHHHHH

pSTAT3 IC50 (nM) (Human IL-23 [1]): 0.03 nM
B2: Anti-IL-23 Adnectin 1866D11 (designed binder)
chain: B1 chain with N27D, T29P, W30Y, Y31R, R54K, G55D

pSTAT3 IC50 (nM) (Human IL-23 [1]): 0.3 nM
IC50 (Human IL-23 [2]): 1 nM
Kd (Human IL-23 [3]): 3.72 nM
koff (Human IL-23 [3]): 0.000409 s⁻¹
kon (Human IL-23 [3]): 110000 M⁻¹ s⁻¹
Activity (parent/mutant) (Human IL-23 [4]): 1
B3: Anti-IL-23 Adnectin 1454B08 (designed binder)
chain: B1 chain with D25E, N27D, T29P, W30Y, Y31R, R54K, G55D, I85M, P88S
notes: 10Fn3-based Adnectin expressed in E. coli followed by a HIS6 tag; Fn3 domain is positions 3-96 of the entry; also called Parent

pSTAT3 IC50 (nM) (Human IL-23 [1]): 0.48 nM
Kd (Human IL-23 [3]): 9.57 nM
koff (Human IL-23 [3]): 0.000438 s⁻¹
kon (Human IL-23 [3]): 45700 M⁻¹ s⁻¹
B4: Anti-IL-23 Adnectin 1454D02 (designed binder)
chain: B1 chain with N27D, T29P, W30Y, Y31R, G55N, V56I, D57N, I85M, P88S
notes: 10Fn3-based Adnectin expressed in E. coli followed by a HIS6 tag (captured by anti-His mAb in SPR)

pSTAT3 IC50 (nM) (Human IL-23 [1]): 30.7 nM
Kd (Human IL-23 [3]): 32.6 nM
koff (Human IL-23 [3]): 0.000236 s⁻¹
kon (Human IL-23 [3]): 7280 M⁻¹ s⁻¹
B5: Anti-IL-23 Adnectin 1241A05 (designed binder)
chain: B1 chain with D25N, T29S, W30Y, D57A, I85M, P88S
notes: 10Fn3-based Adnectin expressed in E. coli followed by a HIS6 tag; Fn3 domain is positions 3-96 of the entry; also called Clone 1241A05

pSTAT3 IC50 (nM) (Human IL-23 [1]): 0.44 nM
Kd (Human IL-23 [3]): 3.91 nM
koff (Human IL-23 [3]): 0.000468 s⁻¹
kon (Human IL-23 [3]): 120000 M⁻¹ s⁻¹
B6: Anti-IL-23 Adnectin 1454C03 (designed binder)
chain: B1 chain with H26M, N27Y, T29P, W30Y, Y31S, R54K, G55E, V56Y, I85M, P88S
notes: 10Fn3-based Adnectin expressed in E. coli followed by a HIS6 tag; Fn3 domain is positions 3-96 of the entry

pSTAT3 IC50 (nM) (Human IL-23 [1]): 0.45 nM
Kd (Human IL-23 [3]): 2.8 nM
koff (Human IL-23 [3]): 0.000227 s⁻¹
kon (Human IL-23 [3]): 81000 M⁻¹ s⁻¹
B7: Anti-IL-23 Adnectin 1454H11 (designed binder)
chain: B1 chain with D25E, N27D, T29P, W30Y, Y31R, G55E, V56D, D57S, I85M, P88S
notes: as for B6
